Test results taken from the Human Domainome abundance scans (Beltran et al. 2025).
± gives the uncertainty stated by the source.

B1: DnaJ homolog subfamily C member 2, residues 451 to 503; numbered along this chain, Q99543 (parent)
chain: SKNWSEDDLQLLIKAVNLFPAGTNSRWEVIANYMNIHSSSGVKRTAKDVIGKA

Variants of: B1
Assay: abundance fitness (aPCA) (normalised: wild type 0, dead -1); higher = more abundant; growth selection in yeast, the domain comes from the species named
Details: Homo sapiens

Question: Which abundance fitness does the source give for V49R here?
Answer: The abundance fitness was -0.888 ± 0.085.

Question: For V49I, which abundance fitness is on record?
Answer: Its abundance fitness is -0.069 ± 0.07.

Question: For V49H, which abundance fitness is on record?
Answer: The abundance fitness was -0.883 ± 0.14.

Question: For V49S, which abundance fitness is on record?
Answer: Its abundance fitness is -0.886 ± 0.094.

Question: With V49D as the variant, how does the abundance fitness read?
Answer: The abundance fitness was -0.877 ± 0.15.

Question: With V49C as the variant, how does the abundance fitness read?
Answer: The abundance fitness was -0.031 ± 0.1.

Question: With V49Q as the variant, how does the abundance fitness read?
Answer: Its abundance fitness is -0.744 ± 0.16.

Question: Which abundance fitness does the source give for V49F here?
Answer: The abundance fitness was -0.721 ± 0.18.

Question: With V49L as the variant, how does the abundance fitness read?
Answer: Its abundance fitness is -0.258 ± 0.067.

Question: With V49A as the variant, how does the abundance fitness read?
Answer: The abundance fitness was -0.219 ± 0.065.

Question: With V49W as the variant, how does the abundance fitness read?
Answer: The abundance fitness was -0.758 ± 0.11.

Question: For V49K, which abundance fitness is on record?
Answer: The abundance fitness was -1.02 ± 0.13.

Question: Which abundance fitness does the source give for V49N here?
Answer: Its abundance fitness is -0.938 ± 0.15.

Question: With V49P as the variant, how does the abundance fitness read?
Answer: The abundance fitness was -1.18 ± 0.14.

Question: Which abundance fitness does the source give for V49E here?
Answer: The abundance fitness was -0.897 ± 0.11.

Question: Which abundance fitness does the source give for A53G here?
Answer: Its abundance fitness is -0.112 ± 0.21.

Question: For A53C, which abundance fitness is on record?
Answer: The abundance fitness was -0.188 ± 0.25.

Question: Which abundance fitness does the source give for A53L here?
Answer: Its abundance fitness is -0.634 ± 0.24.

Question: For A53P, which abundance fitness is on record?
Answer: The abundance fitness was -0.775 ± 0.46.

Question: Which abundance fitness does the source give for A53T here?
Answer: Its abundance fitness is -0.254 ± 0.19.

Question: For A53V, which abundance fitness is on record?
Answer: The abundance fitness was -0.035 ± 0.29.

Question: For A53H, which abundance fitness is on record?
Answer: The abundance fitness was -0.233 ± 0.25.

Question: Which abundance fitness does the source give for A53R here?
Answer: The abundance fitness was -0.498 ± 0.32.

Question: Which abundance fitness does the source give for A53D here?
Answer: Its abundance fitness is -0.08 ± 0.32.

Question: Which abundance fitness does the source give for A53S here?
Answer: Its abundance fitness is -0.001 ± 0.14.

Question: With A53Y as the variant, how does the abundance fitness read?
Answer: The abundance fitness was -0.629 ± 0.45.

Question: Which abundance fitness does the source give for A53Q here?
Answer: The abundance fitness was -0.081 ± 0.22.

Question: Which abundance fitness does the source give for D48Y here?
Answer: The abundance fitness was -1.04 ± 0.19.

Question: With G51A as the variant, how does the abundance fitness read?
Answer: The abundance fitness was -0.019 ± 0.065.

Question: Which abundance fitness does the source give for G51W here?
Answer: Its abundance fitness is -0.064 ± 0.099.

Question: For G51L, which abundance fitness is on record?
Answer: The abundance fitness was -0.159 ± 0.071.

Question: With G51T as the variant, how does the abundance fitness read?
Answer: The abundance fitness was -0.065 ± 0.079.

Question: With G51H as the variant, how does the abundance fitness read?
Answer: Its abundance fitness is -0.206 ± 0.11.

Question: For G51P, which abundance fitness is on record?
Answer: The abundance fitness was -0.194 ± 0.088.

Question: Which abundance fitness does the source give for G51C here?
Answer: Its abundance fitness is -0.142 ± 0.091.

Question: For G51E, which abundance fitness is on record?
Answer: The abundance fitness was 0.016 ± 0.084.

Question: With G51D as the variant, how does the abundance fitness read?
Answer: The abundance fitness was 0.063 ± 0.062.

Question: With G51F as the variant, how does the abundance fitness read?
Answer: The abundance fitness was -0.136 ± 0.094.

Question: Which abundance fitness does the source give for G51Q here?
Answer: Its abundance fitness is -0.043 ± 0.11.

Question: Which abundance fitness does the source give for G51K here?
Answer: Its abundance fitness is 0.12 ± 0.11.

Question: With G51R as the variant, how does the abundance fitness read?
Answer: The abundance fitness was 0 ± 0.06.

Question: Which abundance fitness does the source give for G51I here?
Answer: The abundance fitness was -0.176 ± 0.1.

Question: Which abundance fitness does the source give for G51S here?
Answer: The abundance fitness was -0.014 ± 0.057.

Question: For G51M, which abundance fitness is on record?
Answer: Its abundance fitness is -0.106 ± 0.084.

Question: With G51Y as the variant, how does the abundance fitness read?
Answer: Its abundance fitness is -0.099 ± 0.12.

Question: For K52L, which abundance fitness is on record?
Answer: The abundance fitness was -0.385 ± 0.073.

Question: For K52E, which abundance fitness is on record?
Answer: The abundance fitness was -0.006 ± 0.12.

Question: With K52G as the variant, how does the abundance fitness read?
Answer: The abundance fitness was -0.006 ± 0.074.

Question: With K52N as the variant, how does the abundance fitness read?
Answer: Its abundance fitness is -0.358 ± 0.12.

Question: Which abundance fitness does the source give for K52H here?
Answer: Its abundance fitness is -0.126 ± 0.13.

Question: Which abundance fitness does the source give for K52C here?
Answer: Its abundance fitness is -0.033 ± 0.097.

Question: Which abundance fitness does the source give for K52V here?
Answer: Its abundance fitness is -0.181 ± 0.087.

Question: Which abundance fitness does the source give for K52T here?
Answer: Its abundance fitness is -0.197 ± 0.09.

Question: For K52F, which abundance fitness is on record?
Answer: The abundance fitness was -0.329 ± 0.11.

Question: For K52Q, which abundance fitness is on record?
Answer: The abundance fitness was -0.012 ± 0.12.

Question: For K52I, which abundance fitness is on record?
Answer: The abundance fitness was -0.094 ± 0.11.

Question: With K52M as the variant, how does the abundance fitness read?
Answer: The abundance fitness was -0.247 ± 0.15.

Question: Which abundance fitness does the source give for K52R here?
Answer: Its abundance fitness is -0.119 ± 0.076.

Question: For K52D, which abundance fitness is on record?
Answer: The abundance fitness was -0.666 ± 0.11.

Question: For K52P, which abundance fitness is on record?
Answer: The abundance fitness was -0.077 ± 0.094.

Question: Which abundance fitness does the source give for K52S here?
Answer: Its abundance fitness is -0.252 ± 0.073.

Question: With K52A as the variant, how does the abundance fitness read?
Answer: Its abundance fitness is -0.01 ± 0.09.

Question: Which abundance fitness does the source give for K52W here?
Answer: The abundance fitness was -0.018 ± 0.12.

Question: For I50Y, which abundance fitness is on record?
Answer: The abundance fitness was -0.006 ± 0.098.

Question: With I50C as the variant, how does the abundance fitness read?
Answer: The abundance fitness was -0.228 ± 0.11.

Question: Which abundance fitness does the source give for I50T here?
Answer: Its abundance fitness is -0.267 ± 0.089.

Question: Which abundance fitness does the source give for I50W here?
Answer: Its abundance fitness is -0.085 ± 0.078.

Question: Which abundance fitness does the source give for I50H here?
Answer: The abundance fitness was -0.146 ± 0.1.

Question: For I50N, which abundance fitness is on record?
Answer: The abundance fitness was -0.229 ± 0.096.

Question: With I50G as the variant, how does the abundance fitness read?
Answer: Its abundance fitness is -0.113 ± 0.07.

Question: Which abundance fitness does the source give for I50A here?
Answer: Its abundance fitness is 0.085 ± 0.081.

Question: For I50L, which abundance fitness is on record?
Answer: The abundance fitness was -0.06 ± 0.061.

Question: Which abundance fitness does the source give for I50V here?
Answer: The abundance fitness was 0.03 ± 0.066.

Question: Which abundance fitness does the source give for I50D here?
Answer: Its abundance fitness is -0.224 ± 0.096.

Question: Which abundance fitness does the source give for I50E here?
Answer: The abundance fitness was 0.095 ± 0.095.

Question: Which abundance fitness does the source give for I50P here?
Answer: Its abundance fitness is -0.632 ± 0.16.

Question: Which abundance fitness does the source give for I50R here?
Answer: The abundance fitness was 0.096 ± 0.06.
